The values that follow come from publication PMC11335189, “Revealing molecular determinants governing mambalgin-3 pharmacology at acid-sensing ion channel 1 variants” (Cellular and Molecular Life Sciences: CMLS, 2024).

Changes are numbered by the printed parent chain.

The target in assay [1] is T1, rat acid-sensing ion channel 1a (rat) (UniProt P55926).
T1 sequence: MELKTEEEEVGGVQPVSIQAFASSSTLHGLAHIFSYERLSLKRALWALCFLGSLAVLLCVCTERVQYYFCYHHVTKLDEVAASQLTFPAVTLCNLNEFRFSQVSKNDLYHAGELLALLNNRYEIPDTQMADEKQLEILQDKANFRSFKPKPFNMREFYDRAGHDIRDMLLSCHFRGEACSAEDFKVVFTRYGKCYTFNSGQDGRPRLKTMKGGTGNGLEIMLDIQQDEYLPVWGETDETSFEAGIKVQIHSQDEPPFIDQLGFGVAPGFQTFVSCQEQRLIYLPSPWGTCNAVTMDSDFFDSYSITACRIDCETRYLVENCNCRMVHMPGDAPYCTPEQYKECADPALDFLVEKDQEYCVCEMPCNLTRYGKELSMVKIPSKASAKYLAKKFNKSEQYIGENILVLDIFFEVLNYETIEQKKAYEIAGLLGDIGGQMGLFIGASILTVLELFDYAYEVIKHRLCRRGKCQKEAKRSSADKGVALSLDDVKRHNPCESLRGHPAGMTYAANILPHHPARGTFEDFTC

For assay [2], the target named is T2, rat acid-sensing ion channel 1b (rat).
T2 sequence (P55926 whole entry, looked up): T1 sequence

In assay [3] the target is rASIC1b T128S/E129Q/C208R/G210E (rat).
Assay [4] has as its target T3, rASIC1a S83T/Q84E/R175C/E177G (rat) (UniProt P55926).
T3 sequence: T1 sequence with S83T, Q84E, R175C, E177G

Assay [5] addresses T2, rat acid-sensing ion channel 1b (rat). This is another data set of the same source.
For assay [6], the target named is T4, human acid-sensing ion channel 1a (human) (UniProt P78348).
T4 sequence: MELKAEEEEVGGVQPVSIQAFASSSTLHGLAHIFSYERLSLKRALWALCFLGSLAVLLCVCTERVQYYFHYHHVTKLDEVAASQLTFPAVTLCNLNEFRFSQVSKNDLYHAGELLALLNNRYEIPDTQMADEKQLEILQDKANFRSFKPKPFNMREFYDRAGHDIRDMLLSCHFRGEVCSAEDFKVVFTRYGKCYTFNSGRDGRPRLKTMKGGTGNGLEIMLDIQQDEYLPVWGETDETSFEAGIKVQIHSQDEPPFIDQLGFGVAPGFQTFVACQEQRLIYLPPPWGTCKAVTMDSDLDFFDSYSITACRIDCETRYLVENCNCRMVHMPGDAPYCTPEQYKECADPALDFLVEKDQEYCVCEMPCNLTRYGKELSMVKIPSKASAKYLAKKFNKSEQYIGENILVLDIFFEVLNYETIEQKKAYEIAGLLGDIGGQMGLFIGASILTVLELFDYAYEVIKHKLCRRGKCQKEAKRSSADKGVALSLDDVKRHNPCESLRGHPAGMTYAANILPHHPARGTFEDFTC

The target in assay [7] is T5, rASIC1a E362R (rat) (UniProt P55926).
T5 sequence: T1 sequence with E362R

B1: mambalgin-3 (peptide)
chain: SLKCYQHGKVVTCHRDMKFCYHNIGMPFRNLKLILQGCSSSCSETENNKCCSTDRCNK
With B1, the IC50 of inhibition of pH 6-evoked currents (two-electrode voltage clamp, Xenopus oocytes, conditioning pH 7.45) in assay [1] came out at 3.9 nM; in assay [2], 38.3 nM; in assay [6], 25 nM. The same molecule showed a maximal inhibition of pH 6-evoked currents at saturating Ma-3 in assay [2] of 60%. The same molecule came in with an IC50 of inhibition of pH 6-evoked currents (conditioning pH 7.45) in assay [3] of 18.5 nM. In addition, the I/I (control) of pH 6-evoked currents with 300 nM peptide (I/I (control)) in assay [4] was determined as 0.48; in assay [5], 0.4. Also, the concentration-response of inhibition of pH 6-evoked currents (conditioning pH 7.45); fold change against wild-type rASIC1a in assay [7] was 5 fold.
